In patent US20220144922A1:

Legend:
[1] = target: RSV F protein of subtype A strain A2, on virus (respiratory syncytial virus subtype A strain A2) (UniProt P03420); test: cell-based or functional assay
[2] = target: HMPV F protein (NL/1/00, A1 sublineage), on virus (human metapneumovirus); test: cell-based or functional assay

RSV F protein of subtype A strain A2, on virus (respiratory syncytial virus subtype A strain A2), sequence (P03420 26-574): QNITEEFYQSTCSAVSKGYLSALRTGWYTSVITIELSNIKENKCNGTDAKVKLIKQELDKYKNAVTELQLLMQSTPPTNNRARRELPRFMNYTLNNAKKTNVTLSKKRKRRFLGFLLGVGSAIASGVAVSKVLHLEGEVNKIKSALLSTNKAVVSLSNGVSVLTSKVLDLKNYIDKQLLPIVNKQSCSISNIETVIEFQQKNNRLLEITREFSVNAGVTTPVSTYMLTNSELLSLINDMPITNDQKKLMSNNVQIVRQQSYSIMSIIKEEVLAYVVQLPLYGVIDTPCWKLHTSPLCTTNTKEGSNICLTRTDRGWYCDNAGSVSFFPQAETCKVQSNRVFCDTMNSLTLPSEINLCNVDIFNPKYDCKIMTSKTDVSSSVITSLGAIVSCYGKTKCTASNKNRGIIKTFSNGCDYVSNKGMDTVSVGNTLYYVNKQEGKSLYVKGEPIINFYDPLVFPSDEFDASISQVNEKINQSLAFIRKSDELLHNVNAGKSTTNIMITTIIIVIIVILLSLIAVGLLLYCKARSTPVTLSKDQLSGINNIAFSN

MPE8 (antibody)
RSV-A2 IC50 [1]: 0.04 µg/mL
HMPV-A1 IC50 [2]: 0.07 µg/mL
